In the experiment the target is Dark (wild type), auto-inhibited monomer (D. melanogaster) (UniProt Q7KLI1). Description: cryo-EM structure.

Values joined by “and” are separate entries in the source; they are usually repeats but may differ in a detail not shown here. Equal entries are not always repeated.

By stoichiometry N is commonly meant the number of molecules, sites or subunits per partner or assembly. For the substance “Dark (wild type), auto-inhibited monomer (from UniProt Q7KLI1 1-1440) (natural protein)”, the stoichiometry N is 6 and 8.

The values are drawn from publication PMC10907274.
